To fix the notation:
B1: RHOBTB3 (parent)
chain: STTEGIQLAKELGATYLELHSLDD
B2: FAM189A2 (parent)
chain: CALNALTTTVCLVAAALRYLQIFA
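Also: lentivirally expressed fusions sorted by FACS into six bins by GFP to DsRed ratio, PSI derived from sequencing read proportions per bin multiplied by bin number.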

In the first data set the parent is B1. Description: protein stability index of a GFP-peptide fusion (GPS, HEK-293T) (PSI 1-6); higher = more stable. The conditions noted are these: c terminus: a fixed tail appended.
STTEGIQLAKELGATYLEVHSLDD: the protein stability index was 4.68.
The same measure, in the same setting: with STTEGIQLAKELGATYLECHSLDD the figure was 4.71.
Same read-out and setting: with STTEGIQLAKELGATYLELHSLDQ the figure was 1.96.
For the variant STTEGIQLAKELGATYLELHSLDG, the protein stability index stood at 1.94.
In the case of STTEGIQLAKELGATYLELHSLDR, the protein stability index turned out to be 2.26.
With STTEGIQLAKELGATYLELHYLDD, the protein stability index worked out at 1.59.
The same measure, in the same setting: to STTEGIQLAKELGATYLELHGLDD belongs 4.
On to STNEGIQLAKELGATYLELHSLDD, for which the protein stability index is 2.9.
On the same count and under the same terms, with STAEGIQLAKELGATYLELHSLDD the figure was 2.94; with STTEGIQLAKELGATYLELHSIDD, 3.7.
As for STTEGIQLAKELGATYLELHSLID, the protein stability index is 2.07.
For STTEGIQLAKGLGATYLELHSLDD, the protein stability index came out at 3.86.
Consider STTEGIQLAKKLGATYLELHSLDD, for which the protein stability index turned out to be 2.94.
With STTEGIQLAKVLGATYLELHSLDD, the protein stability index was determined as 2.87.
The same measure, in the same setting: to STTEGIQLAKELAATYLELHSLDD belongs 1.75.
In the case of STTEGIILAKELGATYLELHSLDD, the protein stability index was 3.37.
The same measure, in the same setting: to STTEGITLAKELGATYLELHSLDD belongs 3.68.
With STTEGIGLAKELGATYLELHSLDD, the protein stability index was determined as 3.36.
Turning to STTEGVQLAKELGATYLELHSLDD, the protein stability index came out at 4.05.
On the same count and under the same terms, with STTEGRQLAKELGATYLELHSLDD the figure was 3.6; with SMTEGIQLAKELGATYLELHSLDD, 2.8.
On the same count and under the same terms, with SLTEGIQLAKELGATYLELHSLDD the figure was 2.21.
As to STTEGIQLNKELGATYLELHSLDD, the protein stability index was 4.06.
Same read-out and setting: with STTEGIQLFKELGATYLELHSLDD the figure was 2.28; with STTEGIQLAKELGAMYLELHSLDD, 3.27; with STTEGIQLAKELGAFYLELHSLDD, 2.59.
Same read-out and setting: with STTEGIQLAKELGANYLELHSLDD the figure was 4.72; with STTEGIQWAKELGATYLELHSLDD, 3.86; with STTEDIQLAKELGATYLELHSLDD, 2.49.
On to STTEVIQLAKELGATYLELHSLDD, for which the protein stability index was 3.98.
Take STTEFIQLAKELGATYLELHSLDD: the protein stability index worked out at 2.25.
The same measure, in the same setting: to STTEGIQLAKELGATYGELHSLDD belongs 5.66; to STTEGIQLAKELGATYSELHSLDD, 4.61.
Same read-out and setting: to STTVGIQLAKELGATYLELHSLDD belongs 3.1; to STTPGIQLAKELGATYLELHSLDD, 3.65; to STTAGIQLAKELGATYLELHSLDD, 3.66.
The same measure, in the same setting: to STTTGIQLAKELGATYLELHSLDD belongs 3.67.
For the variant STTCGIQLAKELGATYLELHSLDD, the protein stability index is 1.66.
In the case of STTEGIQLAGELGATYLELHSLDD, the protein stability index amounted to 1.71.
Take STTEGIQLAKEQGATYLELHSLDD: the protein stability index is 4.31.
Take STTEGIQLAKECGATYLELHSLDD: the protein stability index came out at 3.96.
The same measure, in the same setting: to STTEGIQLAKEPGATYLELHSLDD belongs 4.42; to STTEGIQLAKELGNTYLELHSLDD, 3.59.
On the same count and under the same terms, to STTEGIQLAKELGRTYLELHSLDD belongs 3.59; to STTEGIQLAKELGLTYLELHSLDD, 3.15; to STTEGIQLAKELGATYLELLSLDD, 1.41.
Still for that read-out and setting: with STTEGIQLAKELGATYLELCSLDD the figure was 2.68.
As for LTTEGIQLAKELGATYLELHSLDD, the protein stability index was 2.26.
With STTEGIQLAKELGATYLWLHSLDD, the protein stability index stood at 1.61.
Regarding STTEGIQLAKELGATYLLLHSLDD, the protein stability index turned out to be 2.41.
Same read-out and setting: to STTEGIQLAKELGATYLPLHSLDD belongs 3.97.
In the case of STTEGIQLAKELGATYLYLHSLDD, the protein stability index came out at 2.57.
On to STTEGIQLAKELGATYLKLHSLDD, for which the protein stability index worked out at 3.2.
Still for that read-out and setting: to STTEGIQLAKELGATYLVLHSLDD belongs 2.38.

Another data set covers variants of B2. The data set is described as above. The conditions noted are these: c terminus: a fixed tail appended.
CALNALTTHVCLVAAALRYLQIFA: the protein stability index turned out to be 2.19.
For the variant CALNALTTVVCLVAAALRYLQIFA, the protein stability index turned out to be 3.39.
On the same count and under the same terms, to CALNALTTEVCLVAAALRYLQIFA belongs 2.63; to CALNALTTFVCLVAAALRYLQIFA, 2.07; to CALNALTTCVCLVAAALRYLQIFA, 2.34.
Turning to CALNALTTIVCLVAAALRYLQIFA, the protein stability index was 2.68.
Still for that read-out and setting: to CALNALTTQVCLVAAALRYLQIFA belongs 3.59; to CALNALTTPVCLVAAALRYLQIFA, 3.2.
Still for that read-out and setting: with CALNALTTSVCLVAAALRYLQIFA the figure was 3.11; with CALNALTTGVCLVAAALRYLQIFA, 4.16; with CALNALTTLVCLVAAALRYLQIFA, 2.69.
CALNALTTAVCLVAAALRYLQIFA: the protein stability index came to 3.62.
As to CALNALTTNVCLVAAALRYLQIFA, the protein stability index came to 2.79.
Take CALNALTTDVCLVAAALRYLQIFA: the protein stability index came out at 2.65.
As to CALNAITTTVCLVAAALRYLQIFA, the protein stability index was 1.47.
Same read-out and setting: with CALNAFTTTVCLVAAALRYLQIFA the figure was 1.13; with CALNARTTTVCLVAAALRYLQIFA, 2.87.
The same measure, in the same setting: to CALNAGTTTVCLVAAALRYLQIFA belongs 4.13; to CALNANTTTVCLVAAALRYLQIFA, 3.48.
The same measure, in the same setting: to CALNATTTTVCLVAAALRYLQIFA belongs 2.87; to CALNAQTTTVCLVAAALRYLQIFA, 2.83; to CALNAATTTVCLVAAALRYLQIFA, 2.83.
On to CALNAPTTTVCLVAAALRYLQIFA, for which the protein stability index came to 3.83.
As for CALNACTTTVCLVAAALRYLQIFA, the protein stability index stood at 2.11.
Consider CALNAKTTTVCLVAAALRYLQIFA, for which the protein stability index was 1.77.
Turning to CALNAMTTTVCLVAAALRYLQIFA, the protein stability index came to 4.19.
For CALNAYTTTVCLVAAALRYLQIFA, the protein stability index came out at 3.27.
Turning to CALNADTTTVCLVAAALRYLQIFA, the protein stability index is 3.49.
The same measure, in the same setting: to CALNAWTTTVCLVAAALRYLQIFA belongs 3.2; to CALNALTMTVCLVAAALRYLQIFA, 2.93.
The same measure, in the same setting: to CALNALTRTVCLVAAALRYLQIFA belongs 2.69; to CALNALTLTVCLVAAALRYLQIFA, 1.99.
On to CALNALTHTVCLVAAALRYLQIFA, for which the protein stability index worked out at 2.94.
As for CALNALTKTVCLVAAALRYLQIFA, the protein stability index came to 1.93.
The same measure, in the same setting: to CALNALTCTVCLVAAALRYLQIFA belongs 2.95.
As to CALNALTPTVCLVAAALRYLQIFA, the protein stability index was found to be 2.92.
As for CALNALTFTVCLVAAALRYLQIFA, the protein stability index was 3.49.
Same read-out and setting: to CALNALTITVCLVAAALRYLQIFA belongs 3.39; to CALNALTATVCLVAAALRYLQIFA, 3.34; to CALNALTSTVCLVAAALRYLQIFA, 2.63.

For the origin of these results see the supplement of paper PMC10567573.
